Assay results as given in PMC4335501.

Experiments:
soluble CAR-D1 = test: SPR; CAR-D1D2 Fc chimera or CAR-D1 amine-coupled to CM5 (900-1100 RU); 52LFK or 52SFK as analytes, two-fold series 8 nM to 2 μM; 25°C; HBS-EP+ (10 mM HEPES, 150 mM NaCl, 3 mM EDTA, 0.005% P20, pH 7.4); Biacore T100
[1] = molecular target: Recombinant human CAR (CXADR Fc chimera; full length extracellular D1D2 domain) (human) (UniProt P78310); test: as above
[2] = molecular target: 52SFK N308E (human adenovirus type 52 (HAdV-52)); test: gas-phase electrophoretic mobility molecular analysis (GEMMA); 20 mM ammonium acetate pH 7.8, 0.005% Tween 20; 0.05 mg/ml (52SFK wt, mutants 1-3) or 0.06 mg/ml (mutants 4-6)
[3] = molecular target: 52SFK R316E/N318A (human adenovirus type 52 (HAdV-52)); test: as above
[4] = molecular target: HAdV-52 short fiber knob (human adenovirus type 52 (HAdV-52)); test: crystal structure; 52SFK crystals soaked with 20 mM 2-O-methyl sialic acid; 1.65 Å; threefold NCS
[5] = molecular target: HAdV-52 short fiber knob (human adenovirus type 52 (HAdV-52)); test: gas-phase electrophoretic mobility molecular analysis (GEMMA); 20 mM ammonium acetate pH 7.8, 0.005% Tween 20; 0.05 mg/ml (52SFK wt, mutants 1-3) or 0.06 mg/ml (mutants 4-6)
[6] = molecular target: 52SFK R316A/N318A (human adenovirus type 52 (HAdV-52)); test: as above
[7] = molecular target: 52SFK R316E (human adenovirus type 52 (HAdV-52)); test: as above
[8] = molecular target: 52SFK R316A (human adenovirus type 52 (HAdV-52)); test: as above
[9] = molecular target: HAdV-52 virion (strain TB3-2243) (human adenovirus type 52 (HAdV-52)); test: radioligand binding; competition: soluble CAR-D1 preincubated with 35S-labelled virions for 1 h on ice before the virions were added to A549 cells; read-out is the cell-bound radioactivity; concentration of CAR-D1 not stated
[10] = molecular target: HAdV-5 virion (Ad75; source ATCC); test: as above
[11] = molecular target: 52SFK N318A (human adenovirus type 52 (HAdV-52)); test: gas-phase electrophoretic mobility molecular analysis (GEMMA); 20 mM ammonium acetate pH 7.8, 0.005% Tween 20; 0.05 mg/ml (52SFK wt, mutants 1-3) or 0.06 mg/ml (mutants 4-6)

Chain of Recombinant human CAR (CXADR Fc chimera; full length extracellular D1D2 domain) (human) (P78310 20-237, stated change not applied): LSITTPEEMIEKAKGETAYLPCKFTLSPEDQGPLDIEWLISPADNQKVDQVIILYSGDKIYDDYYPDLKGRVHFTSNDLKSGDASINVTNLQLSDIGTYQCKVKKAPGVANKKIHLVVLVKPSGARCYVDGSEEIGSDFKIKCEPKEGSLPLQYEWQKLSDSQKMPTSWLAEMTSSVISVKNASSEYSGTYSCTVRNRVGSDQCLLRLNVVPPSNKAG

“HAdV-52 long fiber knob (domain or fragment)” showed a Kd (soluble CAR-D1) of 2.6 nM and a Kd [1] of 5 nM.
Substance 52SFK N308E (domain or fragment) has a stoichiometry N [2] of 3.
Substance 52SFK R316E/N318A (domain or fragment) has a stoichiometry N [3] of 3.
Substance “HAdV-52 short fiber knob (domain or fragment)” has a stoichiometry N [4] of 3 and a stoichiometry N [5] of 3.
In the case of 52SFK R316A/N318A (domain or fragment), the stoichiometry N [6] is reported as 3.
52SFK R316E (domain or fragment) showed a stoichiometry N [7] of 3.
Substance 52SFK R316A (domain or fragment) has a stoichiometry N [8] of 3.
Substance soluble CAR-D1 (domain or fragment) has a percent reduction of virion binding to A549 cells [9] of 20% and a percent reduction of virion binding to A549 cells [10] of 50%.
In the case of 52SFK N318A (domain or fragment), the stoichiometry N [11] is reported as 3.
